Assay results as given in article PMC8409985.

Target: truncated human ACE2 ectodomain (residues 19–613) with C-terminal AVI-tag and 6xHis-tag, biotinylated (human) (UniProt Q9BYF1)
Assay: BLI

| Substance | t1/2 |
| --- | --- |
| SARS-CoV-2 RBD variant N439K (from UniProt P0DTC2 319-541) (domain or fragment) | 1.85 min |
| SARS-CoV-2 RBD variant N501Y (from UniProt P0DTC2 319-541) (domain or fragment) | 5.49 min |
